Source: US20230035659A1, “Compositions and Methods for TTR Gene Editing and Treating ATTR Amyloidosis Comprising a Corticosteroid or Use Thereof” (Intellia Therapeutics, Inc., priority 2019, published 2023)
Strand notation (5' to 3'): a small letter for the sugar, then the base; units joined by * are phosphorothioate-linked, units joined directly phosphodiester-linked; [ ] holds rarer units or linkages, { } end groups; capitals alone tell only the bases. m = 2'-O-methyl; r = 2'-OH (RNA)

B1: G000502: TTR Cyno specific sgRNA modified sequence, SEQ ID NO: 114; guide sequence of CR000689; cross homologous between mouse and cyno (nucleic acid)
guide: mA*mC*mA*rCrArArArUrArCrCrArGrUrCrCrArGrCrGrGrUrUrUrUrArGrAmGmCmUmAmGmAmAmAmUmAmGmCrArArGrUrUrArArArArUrArArGrGrCrUrArGrUrCrCrGrUrUrArUrCrAmAmCmUmUmGmAmAmAmAmAmGmUmGmGmCmAmCmCmGmAmGmUmCmGmGmUmGmCmU*mU*mU*mU
B2: G000570: TTR sgRNA modified sequence, Human, SEQ ID NO: 111; guide sequence of CR003347 (nucleic acid)
guide: mC*mA*mU*rUrGrArUrGrGrCrArGrGrArCrUrGrCrCrUrGrUrUrUrUrArGrAmGmCmUmAmGmAmAmAmUmAmGmCrArArGrUrUrArArArArUrArArGrGrCrUrArGrUrCrCrGrUrUrArUrCrAmAmCmUmUmGmAmAmAmAmAmGmUmGmGmCmAmCmCmGmAmGmUmCmGmGmUmGmCmU*mU*mU*mU
B3: G000494: TTR sgRNA modified sequence, Human, SEQ ID NO: 101; guide sequence of CR003360 (nucleic acid)
guide: mG*mU*mG*rArGrUrCrUrGrGrArGrArGrCrUrGrCrArUrGrUrUrUrUrArGrAmGmCmUmAmGmAmAmAmUmAmGmCrArArGrUrUrArArArArUrArArGrGrCrUrArGrUrCrCrGrUrUrArUrCrAmAmCmUmUmGmAmAmAmAmAmGmUmGmGmCmAmCmCmGmAmGmUmCmGmGmUmGmCmU*mU*mU*mU
B4: G000499: TTR sgRNA modified sequence, Human, SEQ ID NO: 106; guide sequence of CR005303 (nucleic acid)
guide: mU*mG*mA*rArUrCrCrArArGrUrGrUrCrCrUrCrUrGrArGrUrUrUrUrArGrAmGmCmUmAmGmAmAmAmUmAmGmCrArArGrUrUrArArArArUrArArGrGrCrUrArGrUrCrCrGrUrUrArUrCrAmAmCmUmUmGmAmAmAmAmAmGmUmGmGmCmAmCmCmGmAmGmUmCmGmGmUmGmCmU*mU*mU*mU
B5: G000480: TTR sgRNA modified sequence, Human, SEQ ID NO: 87; guide sequence of CR003353 (nucleic acid)
guide: mA*mA*mA*rGrGrCrUrGrCrUrGrArUrGrArCrArCrCrUrGrUrUrUrUrArGrAmGmCmUmAmGmAmAmAmUmAmGmCrArArGrUrUrArArArArUrArArGrGrCrUrArGrUrCrCrGrUrUrArUrCrAmAmCmUmUmGmAmAmAmAmAmGmUmGmGmCmAmCmCmGmAmGmUmCmGmGmUmGmCmU*mU*mU*mU
B6: G000486: TTR sgRNA modified sequence, Human, SEQ ID NO: 93; guide sequence of CR003339 (nucleic acid)
guide: mA*mC*mA*rCrArArArUrArCrCrArGrUrCrCrArGrCrArGrUrUrUrUrArGrAmGmCmUmAmGmAmAmAmUmAmGmCrArArGrUrUrArArArArUrArArGrGrCrUrArGrUrCrCrGrUrUrArUrCrAmAmCmUmUmGmAmAmAmAmAmGmUmGmGmCmAmCmCmGmAmGmUmCmGmGmUmGmCmU*mU*mU*mU
B7: G000482: TTR sgRNA modified sequence, Human, SEQ ID NO: 89; guide sequence of CR003365 (nucleic acid)
guide: mU*mG*mU*rArGrArArGrGrGrArUrArUrArCrArArArGrGrUrUrUrUrArGrAmGmCmUmAmGmAmAmAmUmAmGmCrArArGrUrUrArArArArUrArArGrGrCrUrArGrUrCrCrGrUrUrArUrCrAmAmCmUmUmGmAmAmAmAmAmGmUmGmGmCmAmCmCmGmAmGmUmCmGmGmUmGmCmU*mU*mU*mU
B8: G000483: TTR sgRNA modified sequence, Human, SEQ ID NO: 90; guide sequence of CR005298 (nucleic acid)
guide: mU*mC*mC*rArCrUrCrArUrUrCrUrUrGrGrCrArGrGrArGrUrUrUrUrArGrAmGmCmUmAmGmAmAmAmUmAmGmCrArArGrUrUrArArArArUrArArGrGrCrUrArGrUrCrCrGrUrUrArUrCrAmAmCmUmUmGmAmAmAmAmAmGmUmGmGmCmAmCmCmGmAmGmUmCmGmGmUmGmCmU*mU*mU*mU
B9: G000484: TTR sgRNA modified sequence, Human, SEQ ID NO: 91; guide sequence of CR003367 (nucleic acid)
guide: mA*mG*mA*rCrArCrCrArArArUrCrUrUrArCrUrGrGrArGrUrUrUrUrArGrAmGmCmUmAmGmAmAmAmUmAmGmCrArArGrUrUrArArArArUrArArGrGrCrUrArGrUrCrCrGrUrUrArUrCrAmAmCmUmUmGmAmAmAmAmAmGmUmGmGmCmAmCmCmGmAmGmUmCmGmGmUmGmCmU*mU*mU*mU
B10: G000567: TTR sgRNA modified sequence, Human, SEQ ID NO: 109; guide sequence of CR003352 (nucleic acid)
guide: mG*mA*mA*rArGrGrCrUrGrCrUrGrArUrGrArCrArCrCrGrUrUrUrUrArGrAmGmCmUmAmGmAmAmAmUmAmGmCrArArGrUrUrArArArArUrArArGrGrCrUrArGrUrCrCrGrUrUrArUrCrAmAmCmUmUmGmAmAmAmAmAmGmUmGmGmCmAmCmCmGmAmGmUmCmGmGmUmGmCmU*mU*mU*mU

Columns and labels:
Assay type in all cases: cell-based
TTR [1] = experiment: TTR editing dose response (EC50, maximum editing) in primary human hepatocytes treated with LNP formulated U-depleted Spy Cas9 mRNA and sgRNAs
Method: (§1) Primary liver hepatocytes. Primary human liver hepatocytes (PHH) and primary cynomolgus liver hepatocytes (PCH) (Gibco) were cultured per the manufacturer's protocol (Invitrogen, protocol 11.28.2012). In brief, the cells were thawed and resuspended in hepatocyte thawing medium with supplements (Gibco, Cat. CM7000) followed by centrifugation at 100 g for 10 minutes for human and 80 g for 4 minutes for cyno. The supernatant was discarded and the pelleted cells resuspended in hepatocyte plating medium plus supplement pack (Invitrogen, Cat. A1217601 and CM3000). Cells were counted and plated on Bio-coat collagen I coated 96-well plates (ThermoFisher, Cat. 877272) at a density of 33,000 cells/well for human or 60,000 cells/well for cyno (or 65,000 cells/well when assaying effects on TTR protein, described further below). Plated cells were allowed to settle and adhere for 6 or 24 hours in a tissue culture incubator at 37° C. and 5% CO2 atmosphere. After incubation cells were checked for monolayer formation and media was replaced with hepatocyte culture medium with serum-free supplement pack (Invitrogen, Cat. A1217601 and CM4000).
For LNPs prepared using the cross-flow technique, the LNPs were formed by impinging jet mixing of the lipid in ethanol with two volumes of RNA solutions and one volume of water. The lipid in ethanol is mixed through a mixing cross with the two volumes of RNA solution. A fourth stream of water is mixed with the outlet stream of the cross through an inline tee. (See WO2016010840 FIG. 2.) The LNPs were held for 1 hour at room temperature, and further diluted with water (approximately 1:1 v/v). Diluted LNPs were concentrated using tangential flow filtration on a flat sheet cartridge (Sartorius, 100 kD MWCO) and then buffer exchanged by diafiltration into 50 mM Tris, 45 mM NaCl, 5% (w/v) sucrose, pH 7.5 (TSS). Alternatively, the final buffer exchange into TSS was completed with PD-10 desalting columns (GE). If required, formulations were concentrated by centrifugation with Amicon 100 kDa centrifugal filters (Millipore). The resulting mixture was then filtered using a 0.2 μm sterile filter. The final LNP was stored at 4° C. or −80° C. until further use.
(§2) Additional PCR was performed per the manufacturer's protocols (Illumina) to add chemistry for sequencing. The amplicons were sequenced on an Illumina MiSeq instrument. The reads were aligned to a reference genome (e.g., the human reference genome (hg38), the cynomologus reference genome (mf5), the rat reference genome (rn6), or the mouse reference genome (mm10)) after eliminating those having low quality scores. The resulting files containing the reads were mapped to the reference genome (BAM files), where reads that overlapped the target region of interest were selected and the number of wild type reads versus the number of reads which contain an insertion, substitution, or deletion was calculated.
(§3) The editing percentage (e.g., the “editing efficiency” or “percent editing” or “indel frequency”) is defined as the total number of sequence reads with insertions/deletions (“indels”) or substitutions over the total number of sequence reads, including wild type.
Lipid nanoparticle formulations of modified sgRNAs targeting human TTR and the cyno matched sgRNA sequences were tested on primary human hepatocytes and primary cyno hepatocytes in a dose response curve. Primary human and cyno hepatocytes were plated as described in Example 1. Both cell lines were incubated at 37° C., 5% CO2 for 24 hours prior to treatment with LNPs. The LNPs used in the experiments detailed in Tables 20-22 were prepared using the cross-flow procedure described above but purified using PD-10 columns (GE Healthcare Life Sciences) and concentrated using Amicon centrifugal filter units (Millipore Sigma), each containing the specified sgRNA and Cas9 mRNA (SEQ ID NO:1). […] LNPs were incubated in hepatocyte maintenance media containing 6% cyno serum at 37° C., 5% CO2 for 5 minutes. […]

TTR [2] = experiment: TTR editing in primary human hepatocytes treated with LNP formulated Spy Cas9 mRNA (SEQ ID NO: 2) and sgRNAs, 12.5 ng mRNA; conditions: for 12.5 ng mRNA, 3.9 nM sgRNA, Avg % Edit: LNP formulated Spy Cas9 mRNA (SEQ ID NO: 2) and sgRNA, 72 hours
Method: as §1
In general, the lipid nanoparticle components were dissolved in 100% ethanol with the lipid component of various molar ratios. The RNA cargos were dissolved in 25 mM citrate, 100 mM NaCl, pH 5.0, resulting in a concentration of RNA cargo of approximately 0.45 mg/mL. The LNPs were formulated with a lipid amine to RNA phosphate (N:P) molar ratio of about 4.5 or about 6, with the ratio of mRNA to gRNA at 1:1 by weight.
The LNPs were formed by microfluidic mixing of the lipid and RNA solutions using a Precision Nanosystems NanoAssemblr™ Benchtop Instrument, according to the manufacturer's protocol. A 2:1 ratio of aqueous to organic solvent was maintained during mixing using differential flow rates. After mixing, the LNPs were collected, diluted in water (approximately 1:1 v/v), held for 1 hour at room temperature, and further diluted with water (approximately 1:1 v/v) before final buffer exchange. The final buffer exchange into 50 mM Tris, 45 mM NaCl, 5% (w/v) sucrose, pH 7.5 (TSS) was completed with PD-10 desalting columns (GE). If required, formulations were concentrated by centrifugation with Amicon 100 kDa centrifugal filters (Millipore). The resulting mixture was then filtered using a 0.2 μm sterile filter. The final LNP was stored at −80° C. until further use.
as §2, §3
Lipid nanoparticle formulations of modified sgRNAs targeting human TTR and the cyno matched sgRNA sequences were tested on primary human hepatocytes and primary cyno hepatocytes in a dose response curve. Primary human and cyno hepatocytes were plated as described in Example 1. Both cell lines were incubated at 37° C., 5% CO2 for 24 hours prior to treatment with LNPs. The LNPs used in the experiments detailed in Tables 18-21 were prepared using the Nanoassemblr™ procedure, each containing the specified sgRNA and Cas9 mRNA (SEQ ID NO:2), each having Lipid. […]

[3] = system: potential off-target genomic sites; experiment: Off-target analysis by oligo insertion based assay in primary human hepatocytes (sgRNAs); conditions: 100 ng Cas9 mRNA, 25 nM sgRNA, 12.5 nM donor oligo, 48 h
Method: Off-target analysis of sgRNAs targeting TTR was performed in primary human hepatocytes (PHH) as described in Example 5, with the following modifications. PHH were plated at a density of 33,000 cells per well on collagen-coated 96-well plates as described in Example 1. Twenty-four hours post plating, cells were washed with media and transfected using Lipofectamine RNAiMAX (ThermoFisher, Cat. 13778150) as described in Example 1. Cells were transfected with a lipoplex containing 100 ng Cas9 mRNA, immediately followed by the addition of another lipoplex containing 25 nM of the sgRNA and 12.5 nM of the donor oligo (0.3 μL/well). Cells were lysed 48 hours post-transfection and gDNA was extracted and analyzed as further described in Example 5. The data is graphically represented in FIG. 20.
Fewer sites were detected in PHH for every guide tested as compared to the HekCas9 cell line, with no unique sites detected in PHH alone.

[4] = LNP formulated U-depleted Spy Cas9 mRNA and human specific sgRNAs, dose response

| Molecule | Max Editing (TTR [1]; LNP with U-depleted Spy Cas9 mRNA and cyno specific sgRNA, 8 point 3-fold dose response starting at 300 ng mRNA, 72 hours) [%] | 12.5 ng mRNA, 3.9 nM sgRNA, Avg % Edit (TTR [2]) [%] | dose response curve of % editing (shape) (TTR [2]; LNP formulated Spy Cas9 mRNA and sgRNA, 8 point 2-fold dose response starting at 100 ng mRNA) | Max Editing (TTR [1]; [4]) [%] | # Sites in PHH (off-target integration sites detected) [3] |
| --- | --- | --- | --- | --- | --- |
| B1 | 91.5 |  |  |  |  |
| B2 |  | 88.30 | uncharacteristic dose response curve | 98.22 | 1 |
| B3 |  | 6.37 |  | 75.70 | 0 |
| B4 |  | 16.07 |  | 96.31 | 1 |
| B5 |  | 59.33 |  | 98.69 | 2 |
| B6 |  | 61.33 |  |  | 0 |
| B7 |  | 19.10 |  | 97.02 | 2 |
| B8 |  | 7.37 |  | 77.39 | 0 |
| B9 |  | 16.67 |  | 94.14 | 0 |
| B10 |  | 48.95 |  |  | 0 |
